Assay results from the RNAGym collection of RNA variant scans (doi:10.1073/pnas.2313332121).
This sample holds only a part of the variants without activity.

B1: TPR 5TU (parent)
chain: GGAUCUUCUCGAUCUAACAAAAAAGACAAAUCUGCCACAAAGCUUGAGAGCAUCUUCGGAUGCAGAGGCGGCAGCCUUCGGUGGCGCGAUAGCGCCAACGUUCUCAACUAUGACACGCAAAACGCGUGCUCCGUUGAAUGGAGUUUAUCAUG

Variants of: B1
Assay: polymerase ribozyme fitness, log enrichment relative to wild type (log ratio); higher = more active; in vitro selection for triplet polymerase activity
In short: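 A single round of triplicate in vitro selection, including frozen incubation at −7 °C, was applied to PCR-built, transcribed mutant libraries of each subunit of a heterodimeric triplet polymerase ribozyme. Illumina sequencing of input and output libraries retained genotypes with ≥10 input reads and ≥1 read per output. Fitness is the base-2 logarithm of genotype enrichment divided by wild-type enrichment, from inverse-variance-weighted replicate averages.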

Variant | polymerase ribozyme fitness (log ratio)
G48C U134A | -1.01
G50A G141A | -0.962
A49U A52C G59A A73U C76G G84U | ≤ -4.2
G50C G65C C87U | -4.13
A47U A64G C93A | ≤ -4.2
G50A G68A C95A G140C | ≤ -4.2
G50A G86C C99U U104G C116G | ≤ -4.2
G50A G74U G83A C85G G126U C149A | ≤ -4.2
G50C C96G | -2.66
G50C C96U | -2.14
A47U G50A C87G C105G C114U C129U | ≤ -4.2
G50C G86C | ≤ -4.2
G50C G86U | -3.89
G50A U53A G58C C79U A121G U134A U139G | ≤ -4.2
A49C C54A | ≤ -4.2
G48A A97G | -0.198
G48U C95U | -1.01
G48U U148C | -3.36
A49C G50C U78C G140C | ≤ -4.2
G50A U134C | -1.29
G50A C118A A119U G143A | -2.71

Variant | polymerase ribozyme fitness (log ratio)
A49U G74A C79A U90A G94A C123G G133U | ≤ -4.2
A47U A64G A138C U144C | ≤ -4.2
G48C C87A U130G | ≤ -4.2
A49G G50C | -2.28
A47U U56A C85A U104A | -2.77
G50A A122U A137G | -2.6
A49G C87A G126A | ≤ -4.2
G48A A52G | 0.139
A49G G50C C69G C103G G136U | ≤ -4.2
A47U | -0.143
G50A G92C | -3.26
G48A C85A | -2.56
G48A C85U | -2.1
G48C G50A C54U C85A C129G | ≤ -4.2
G50C C85A U144G | ≤ -4.2
A49C G88U A106U | ≤ -4.2
G48C G58C C99G | ≤ -4.2
A49U G59C A73G A119C U134G G136A | -3.39
G50C G74A G92U | ≤ -4.2
G48C C75U G81A G84U A97U G141U A150U | ≤ -4.2
G48C C57A C72G | ≤ -4.2

Variant | polymerase ribozyme fitness (log ratio)
A47U G50A C129U | -3.09
G48U G86C | -3.31
G50A U56A C95U | -1.99
A49U A52U A89G A98G | -3.98
A49U C51U C79A A120G C123A | ≤ -4.2
G50A C103G U111G A122U U151A | ≤ -4.2
A47G G65C A106G A120G | -4.14
G48U U55G | -0.894
A49G G83C | -1.21
A47G U53C U134G | -3.45
G48A G50U U55A | -2.15
A49C G50C C54G G70A C87G A89G C103U | ≤ -4.2
A47G U53A C75G U90C | ≤ -4.2
A49C C93U G133A | ≤ -4.2
G48A U53C G92C C95U A98C | -1.65
A49C C103G A115G | ≤ -4.2
A47U U55A C95A A122G | -0.42
G50A C93A | -3.33
G50A A66G C85A A106G G140C | ≤ -4.2
A47U G59A C96G | -1.05
G48C C51U C54U C57U U90C A138G U144A | ≤ -4.2

Variant | polymerase ribozyme fitness (log ratio)
G50A C116U | -1.34
A47G G48A G70A U77G C95U C108G A122U | ≤ -4.2
A49C C96A U102G G141U | 0.794
G50C C51U C54G C87U | ≤ -4.2
A49C G83C U90C A122G | ≤ -4.2
A47U G83A U101C G117U | -0.198
G50A C118G | -2.21
G50C C103A U139C | ≤ -4.2
G50A C75U C76U U77A C96A A110G | ≤ -4.2
G50A U144A | -1.6
A47U U148C | -2.46
G50C U53A C57G G70A G100C A120G | ≤ -4.2
A49G U53A C54U | -2.09
G48C G50A G81U C95A U146G | -3.35
G50A G74A U78C A113G G124C | ≤ -4.2
G48A C54U G86C A106C | ≤ -4.2
G48C G59C U82G | 0.0275
A47G G152U | -2.47
A49G C51G U53G C79U C118U | ≤ -4.2
G50C C57A A64U U78G | ≤ -4.2
A49G C75A G136U A138C | ≤ -4.2
